In the Human Domainome abundance scans (Beltran et al. 2025):
± gives the uncertainty stated by the source.

B1: Far upstream element-binding protein 1, residues 184 to 257; numbered along this chain, Q96AE4 (parent)
chain: GNAVQEIMIPASKAGLVIGKGGETIKQLQERAGVKMVMIQDGPQNTGADKPLRITGDPYKVQQAKEMVLELIRD

Variants of: B1
Test: abundance fitness (aPCA) (normalised: wild type 0, dead -1); higher = more abundant; growth selection in yeast, the domain comes from the species named
Conditions: Homo sapiens

Row | Variant | abundance fitness
1 | GNAVQEIMIPASKAGLVIGKGGETIKQLQERAGVKMVMIQDGPQNTGADKPLRITGDPYRVQQAKEMVLELIRD [K60R] | -0.052 ± 0.026
2 | GNAVQEIMIPASKAGLVIGKGGETIKQLQERAGVKMVMIQDGPQNTGADKPLRITGDPYHVQQAKEMVLELIRD [K60H] | -0.01 ± 0.047
3 | GNAVQEIMIPASKAGLVIGKGGETIKQLQERAGVKMVMIQDGPQNTGADKPLRITGDPYVVQQAKEMVLELIRD [K60V] | -0.581 ± 0.033
4 | GNAVQEIMIPASKAGLVIGKGGETIKQLQERAGVKMVMIQDGPQNTGADKPLRITGDPLKVQQAKEMVLELIRD [Y59L] | 0.026 ± 0.028
5 | GNAVQEIMIPASKAGLVIGKGGETIKQLQERAGVKMVMIQDGPQNTGADKPLRITGDPSKVQQAKEMVLELIRD [Y59S] | 0.006 ± 0.029
6 | GNAVQEIMIPASKAGLVIGKGGETIKQLQERAGVKMVMIQDGPQNTGADKPLRITGDPEKVQQAKEMVLELIRD [Y59E] | 0.009 ± 0.032
7 | GNAVQEIMIPASKAGLVIGKGGETIKQLQERAGVKMVMIQDGPQNTGADKPLRITGDPAKVQQAKEMVLELIRD [Y59A] | 0.011 ± 0.029
8 | GNAVQEIMIPASKAGLVIGKGGETIKQLQERAGVKMVMIQDGPQNTGADKPLRITGDPNKVQQAKEMVLELIRD [Y59N] | 0.047 ± 0.047
9 | GNAVQEIMIPASKAGLVIGKGGETIKQLQERAGVKMVMIQDGPQNTGADKPLRITGDPMKVQQAKEMVLELIRD [Y59M] | -0.043 ± 0.035
10 | GNAVQEIMIPASKAGLVIGKGGETIKQLQERAGVKMVMIQDGPQNTGADKPLRITGDPTKVQQAKEMVLELIRD [Y59T] | 0.047 ± 0.033
11 | GNAVQEIMIPASKAGLVIGKGGETIKQLQERAGVKMVMIQDGPQNTGADKPLRITGDPRKVQQAKEMVLELIRD [Y59R] | 0.032 ± 0.025
12 | GNAVQEIMIPASKAGLVIGKGGETIKQLQERAGVKMVMIQDGPQNTGADKPLRITGDPIKVQQAKEMVLELIRD [Y59I] | 0.046 ± 0.048
13 | GNAVQEIMIPASKAGLVIGKGGETIKQLQERAGVKMVMIQDGPQNTGADKPLRITGDPDKVQQAKEMVLELIRD [Y59D] | 0.057 ± 0.042
14 | GNAVQEIMIPASKAGLVIGKGGETIKQLQERAGVKMVMIQDGPQNTGADKPLRITGDPHKVQQAKEMVLELIRD [Y59H] | 0.044 ± 0.044
15 | GNAVQEIMIPASKAGLVIGKGGETIKQLQERAGVKMVMIQDGPQNTGADKPLRITGDPVKVQQAKEMVLELIRD [Y59V] | -0.024 ± 0.029
16 | GNAVQEIMIPASKAGLVIGKGGETIKQLQERAGVKMVMIQDGPQNTGADKPLRITGDPFKVQQAKEMVLELIRD [Y59F] | -0.003 ± 0.05
17 | GNAVQEIMIPASKAGLVIGKGGETIKQLQERAGVKMVMIQDGPQNTGADKPLRITGDPCKVQQAKEMVLELIRD [Y59C] | -0.003 ± 0.044
18 | GNAVQEIMIPASKAGLVIGKGGETIKQLQERAGVKMVMIQDGPQNTGADKPLRITGDPGKVQQAKEMVLELIRD [Y59G] | 0.029 ± 0.026
19 | GNAVQEIMIPASKAGLVIGKGGETIKQLQERAGVKMVMIQDGPQNTGADKPLRITGDPPKVQQAKEMVLELIRD [Y59P] | 0.015 ± 0.031

Row | Variant | abundance fitness
20 | GNAVQEIMIPASKAGLVIGKGGETIKQLQERAGVKMVMIQDGPQNTGADKPLRITGDPKKVQQAKEMVLELIRD [Y59K] | 0.036 ± 0.036
21 | GNAVQEIMIPASKAGLVIGKGGETIKQLQERAGVKMVMIQDGPQNTGADKPLRITGDPWKVQQAKEMVLELIRD [Y59W] | 0.021 ± 0.032
22 | GNAVQEIMIPASKAGLVIGKGGETIKQLQERAGVKMVMIQDGPQNTGADKPLRITGDLYKVQQAKEMVLELIRD [P58L] | -0.068 ± 0.03
23 | GNAVQEIMIPASKAGLVIGKGGETIKQLQERAGVKMVMIQDGPQNTGADKPLRITGDMYKVQQAKEMVLELIRD [P58M] | -0.014 ± 0.04
24 | GNAVQEIMIPASKAGLVIGKGGETIKQLQERAGVKMVMIQDGPQNTGADKPLRITGDAYKVQQAKEMVLELIRD [P58A] | -0.012 ± 0.032
25 | GNAVQEIMIPASKAGLVIGKGGETIKQLQERAGVKMVMIQDGPQNTGADKPLRITGDWYKVQQAKEMVLELIRD [P58W] | -0.044 ± 0.038
26 | GNAVQEIMIPASKAGLVIGKGGETIKQLQERAGVKMVMIQDGPQNTGADKPLRITGDKYKVQQAKEMVLELIRD [P58K] | -0.016 ± 0.041
27 | GNAVQEIMIPASKAGLVIGKGGETIKQLQERAGVKMVMIQDGPQNTGADKPLRITGDQYKVQQAKEMVLELIRD [P58Q] | -0.079 ± 0.046
28 | GNAVQEIMIPASKAGLVIGKGGETIKQLQERAGVKMVMIQDGPQNTGADKPLRITGDNYKVQQAKEMVLELIRD [P58N] | -0.139 ± 0.057
29 | GNAVQEIMIPASKAGLVIGKGGETIKQLQERAGVKMVMIQDGPQNTGADKPLRITGDYYKVQQAKEMVLELIRD [P58Y] | -0.022 ± 0.056
30 | GNAVQEIMIPASKAGLVIGKGGETIKQLQERAGVKMVMIQDGPQNTGADKPLRITGDRYKVQQAKEMVLELIRD [P58R] | 0 ± 0.027
31 | GNAVQEIMIPASKAGLVIGKGGETIKQLQERAGVKMVMIQDGPQNTGADKPLRITGDCYKVQQAKEMVLELIRD [P58C] | -0.1 ± 0.047
32 | GNAVQEIMIPASKAGLVIGKGGETIKQLQERAGVKMVMIQDGPQNTGADKPLRITGDSYKVQQAKEMVLELIRD [P58S] | -0.064 ± 0.033
33 | GNAVQEIMIPASKAGLVIGKGGETIKQLQERAGVKMVMIQDGPQNTGADKPLRITGDHYKVQQAKEMVLELIRD [P58H] | -0.003 ± 0.068
34 | GNAVQEIMIPASKAGLVIGKGGETIKQLQERAGVKMVMIQDGPQNTGADKPLRITGDEYKVQQAKEMVLELIRD [P58E] | -0.004 ± 0.034
35 | GNAVQEIMIPASKAGLVIGKGGETIKQLQERAGVKMVMIQDGPQNTGADKPLRITGDGYKVQQAKEMVLELIRD [P58G] | -0.034 ± 0.028
36 | GNAVQEIMIPASKAGLVIGKGGETIKQLQERAGVKMVMIQDGPQNTGADKPLRITGDVYKVQQAKEMVLELIRD [P58V] | -0.031 ± 0.032
37 | GNAVQEIMIPASKAGLVIGKGGETIKQLQERAGVKMVMIQDGPQNTGADKPLRITGDTYKVQQAKEMVLELIRD [P58T] | -0.002 ± 0.037
